The text below walks through data of the nanobody polyreactivity screen of Harvey et al. (2022).

This data set can be described thus: yeast display, Sf9 membrane polyspecificity reagent, FACS + sequencing; frameworks hold sequencing errors. A digest of the protocol: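 A nanobody's polyreactivity label depends on the gate it was sorted from. Yeast display cells were stained with 10% biotinylated, detergent-solubilized Sf9 membrane reagent for 1 hour at 4 °C, enriched on streptavidin microbeads and sorted by FACS. The low and high (top ~1%) gates were set on anti-HA fluorescence for expression and streptavidin fluorescence for reagent binding.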
Consider “QVQLVESGGGLVQAGGSLRLSCAASGSIILVYAMGWYRQAPGKERELVAGINSSGTSTYADSVKGRFTISRDNAKNTVYLQMNSLKPEDTAVYYCATPGIYYEMDYWGQGTQVTVSS”, for which the “polyreactivity (PSR sort gate)” value was “low polyreactivity”.

Take “QVQLVESGGGLVQAGGSLRLSCAASGSTFYPNSMVWYRQAPGKERELVAAISRGTRTKYADSVKGRFTISRDNAKNSVYLQKNSLKPEDTAVYYCAADTGTGLDWGQGTQVTVSS”: the “polyreactivity (PSR sort gate)” value was “high polyreactivity”. The result for “QVQLVESGGGLVQAGGSLRLSCAASGRIFWYNAMGWYRQAPGKERELVAVITSGTSTYYADSVKGRFTISRDNAKNTVYLQMNSLKPEDTAVYYCAARYLSRYSERHYYYWGQGTQVTVSS” reads “high polyreactivity”; that for “QVQLVESGGGLVQAGGSLRLSCAASGSTFYWYAKGWYRQAPGKERELVAAITSTGGSTYADSVKGRFTISRDNAKNTVYLQMNSLKPEDTAVYYCNVDTSSPSRRDYDYWGQGTQVTVSS”, “low polyreactivity”. The same measure for “QVQLVESGGGLVQAGGSLRLSCAASGSTLYTYAMRWYRQAPGKERELVAAIRLSGGRTYYADSVKGRFTISRDNAKNTVYLQMYSLKPEDTAVYDFAVDWSYSRYDYWGQGTQVTVSS”: “high polyreactivity”. The result for “QVQLVESGGGLVQAGGSLRLSCAASGRTFQGNTMGWYRQAPGKEREFVAAMSSRGGSTYYADSVKGRFTISRDNAKNTVYLQMNRLKPEDTAVYYCDARFSHGYDYWGQGTQVTVSS” reads “high polyreactivity”; that for “QVQLVESGGGLVQAGGSLRLSCAASGSIFVSYAMGWYRQAPGKERELVAAISRSGGRTYYADSVKGRFTISRDNAKNTVYLQMNSLKPEDTAVYYCAADYTKSSSPWPGYYWGQGTQVTVSS”, “high polyreactivity”; that for “QVQLVESGGGLVQAGGSLRLSCAASGRTYYWNAMGWYRQAPGKEREFVAAITNTAGSTYYADSVKGRFTISRDNAKNTVYLQMNSLKPEDTAVYYCAKSGNAGYRTYLRDYWGQGTQVTVSS”, “low polyreactivity”.

Consider “QVQLVESGGGLVQAGGSLRLSCAASGITFYKYVMGWYRQAPGKEREFVAAITWSGDSTYADSVKGRFTISRDNAKNTVYLQMNSLKPEDTAVYYCAARTWSRRQREYDYWGQGTQVTVSS”, for which the “polyreactivity (PSR sort gate)” value is “high polyreactivity”. With “QVQLVESGGGLVQAGGSLRLSCAASGFISYYYAMGWYRQAPGKEREFVAAITSSGGSTRYADSVKGRFSISRDNATNTVYLQMNSLKPEDTAVYYCAAGNPYFWPYDYWGQGTQVTVSS”, the “polyreactivity (PSR sort gate)” value was “low polyreactivity”. The result for “QVQLVESGGGLVQAGGSLRLSCAASGSTFPKYAMGWYRQAPGKERELVASISVTTGSTYYADSVKGRFTISRDSAKNTVYLQMNSQKPVDTAVFYCAKRTYSRKFRGAYNYWGQGTQVTVSS” reads “high polyreactivity”. “QDQLVESGGGLVQAGGSLRLSCAASGSNFLKYTMGWYRQAPGKERELVAAITSGGTTNYADSVKGRFTISRDNAKNTVYLQMNSLKPEDTAVYYCARDSYQLGLIRDPLEYDYWGQGTQVTVSS”: the “polyreactivity (PSR sort gate)” value is given as “low polyreactivity”. Take “QVQLVESGGGLVQAGGSLRLSCAASMGWYRQAPGKERELVAITRTTRTYYADSVKGRFTISRDNAKNTVYLQMNSLKPVDTAVYYCAAPNGPSPYWYNYWGQGTQVTVSS”: the “polyreactivity (PSR sort gate)” value is given as “low polyreactivity”.

Regarding “QVQLVESGGGLVQAGGSLRLSCAASGSTFGDYAMGGYRQAPGKERELVAAISFSDGSTYYADSVKGRFTISRDNAKNTVYLQMNSLKPEDTAVYYCAKDAYWGYRWYTYDYWGQGTQVTVSS”, the “polyreactivity (PSR sort gate)” value is given as “low polyreactivity”. The same measure for “QVQLVESGGGLVQAGGSLRLSCAASGRTFYSFNAMVCYRQAPVKERELVAAIVGDGGITYYADSVKGRFTISRDNANNTVFLQMNSLKPEDTAVYYCAAETLHSSDGEDDYWGQGTQVSVSS”: “low polyreactivity”; for “QVQLVESGGGLVQAGGSLRLSCAASGIIFGYNVMGWYRQAPGKERELVAAISGSGSSTYYADSVKGRFTISRDNAKITVYLQMNSLKPEDTAVYYCAARRYSTKRWRMYYWGQGTQVTVSS”: “high polyreactivity”. The result for “QVHLEESGGGLVQAGGSLRLSCAASGLTFQWNAMGWYRQAPGKERELVAAISYSGGSTYYAYSVKGRFTISRDNAKYCVYLQMKSLKPEDTAVYYCAARTYSQWLQRYRLLGQGTQVTVSS” reads “high polyreactivity”. Consider “QVQLVESGGGLVQAGGSLRLSCAASGSTFSYYAMGWYRQAPGKERELVAAISRTAVSTYYADSVKGRFTISRDNAKNTVYLQMNSLKPEDTAVYYCAASHFHGYSLGYDYWGQGTQVTVSS”, for which the “polyreactivity (PSR sort gate)” value is “high polyreactivity”. The result for “QVQLVESGGVLVQAGASLRLSCAASVRIFWLNARGCYRQAPGKEREFVASITYGSDSTYYSDSVNGRFTISRDNAKNTVYLQMNSLIPEDTSVYYCNREGWHYGPYEYWGQVTQVTVSS” reads “low polyreactivity”; that for “QVQLVESAGGIVQAGGSLRLSCAASGFIFVRNAIGWYRQAPGKEREFVAAINSSGGRTYYADSVKGRFTISRDNAKNTVYLQMNSLKPEDPAVYYCAARPQPKKFYYWGLGTQVTVSS”, “high polyreactivity”.

Consider “QVQLVESGGGLVQAGGSLRLSCAASGFTFGSYAMGWYRQAPGKERELVAAISTSGDTTYYADSVKGRFTISRDNAKNTVYLQMNSLKPEDTAVYYCAAYDWGWPYTLIPFYYWGQGTQVTVSS”, for which the “polyreactivity (PSR sort gate)” value was “low polyreactivity”. The result for “QVQLVESGGGLVQAGGSLRLSCAASGSIFGTNAMGWYRQAPGKERELVAAITGRGGSTYYADSVKGRFTISRDNAKNTVYLQMNSLKPEDTAVYYCAVKISTYTYGYWGQGTQVTVSS” reads “high polyreactivity”. The result for “QVQLVESGGGLVQAGGSLRLSCAASGTIFLWYAMGWYIQAPGKERELVASITRGGNTYYADSVKGRFTISRDNAKNTVYLQMISLKPEDTAVYYCAAVSRFWRVPYTYDYWGQGTHVTVSS” reads “low polyreactivity”; that for “QVQLVESGGGLVQAGGSHRLSSAASGSILADNAMGWYRQAPGKERELVAAISLRGGRTYYADSVKGGFTISRDNAKNTVYLQMNSLKPEDTAVYYCAAVGSFHIVDYWGEGTQVTVSS”, “high polyreactivity”. The same measure for “QVQLVESGGGLVQAGGSLRLSCAASGRIFCFNAMGWYRQAPGKERELVAAISGTGGSTYYADSEKGRFTISRDNAKNTVYLQMNSLKPEDTAVYYCAAFYNYYGQRYYYWGQGTQVTVSS”: “high polyreactivity”; for “QVQLVESGGGLVQAGGSLRLSCAASGIIMPSYVMGWYRQAPGKERELVAAITRSGGNTYYADSVKGRFTISRDNAKNTVYLQMNSLKPEDTAVYYCAARAPVRRYRAYEFDYWGQGTQVTVSS”: “high polyreactivity”. Consider “QVQLVESGGGLVQAGGSLRLSCAASGSIFTPNVKGRYRQAPGKERELVAAISQSGGSTFYADSVKGRFSFSRDNAKKTVYLQMNSLKPEDTAVYYCASEYYGPVYDLDFDYWGQGTQVTVSS”, for which the “polyreactivity (PSR sort gate)” value was “low polyreactivity”.

Turning to “QVQLVESGGGLVQAGGSLRLSCAASGNTFWDNAMGWYRQAPGKERELVAAIRWSTASTHYADSVKGRFTISRDNAKNTVYFPMNSLKPEDTAVYYCAATDYYYYRDKYYGYDNWGQGTQVTVSS”, the “polyreactivity (PSR sort gate)” value is reported as “low polyreactivity”. Take “QVQLVESGGGLVQAGGSLRLSCAASGFIFRYNAMGWYRQAPGKERELVAAISWNGGRTYYADSVKGRFTISRDNAKNTVYLQMNSLKPEDTAVYYCAAELSSYFFSAGYDYWGQGTQVTVSS”: the “polyreactivity (PSR sort gate)” value is listed as “high polyreactivity”. The result for “QVQLVESGGGLVQAGGSLRLSCAASGRIFYLNAMGWYRQAPGKERELVAAISGSTGSTYYADSVKGRFTISRDNAKNTVYLQMNSLKPEDTAVYYCNAGGVYDEFNYWGQGTQVTVSS” reads “low polyreactivity”.
